For this data set, the target named is peptide F (two-zinc-finger peptide, X = phenylalanine) (Artificial Sequence). Briefly: EMSA; 100 uM ZnCl2, 100 mM NaCl, 4 C. Conditions: protein: synthetic; tags: none; chemically synthesized (Fmoc SPPS), C-terminal amide; label: 5'-32P on G chain. Here is the method: These bands obtained on the gel were quantified using Image Gauge software (FUJIFILM Corporation, ver. 4.01). The ratio of DNA bound to the peptide ([bound]/[bound]+[free]) was calculated from the band intensity at each peptide concentration; using this and the concentration of the peptide, the dissociation constant between the peptide and the DNA was calculated from the calculation equation (2) below.
Sequence of peptide F (two-zinc-finger peptide, X = phenylalanine) (Artificial Sequence) (chain, as listed by the source): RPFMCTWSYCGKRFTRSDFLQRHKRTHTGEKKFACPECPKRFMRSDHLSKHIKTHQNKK

This passage reports Kd results from patent publication US20120238038, “PEPTIDE BINDING TO METHYLATED DNA” (published 2012).

B1: methylated target DNA (dsDNA)
DNA 1: GGGGCGGGGCC
DNA 2: GGCCCCGCCCC
modifications: 5mC at position 5 of G chain and position 6 of C chain
Take B1: the Kd (commonly the constant that tells how readily two partners part at equilibrium) is 5.58 µM.

B2: unmethylated target DNA (dsDNA)
DNA 1: GGGGCGGGGCC
DNA 2: GGCCCCGCCCC
The molecule B2 registered a dissociation constant (Kd) of 2.1 µM. Against the preceding molecule, the Kd is about 2.7-fold lower.
